# B1: CD69 (receptor, human (endogenous in Jurkat), UniProt Q07108 1-199, looked up)
# chain: MSSENCFVAENSSLHPESGQENDATSPHFSTRHEGSFQVPVLCAVMNVVFITILIIALIALSVGQYNCPGQYTFSMPSDSHVSSCSEDWVGYQRKCYFISTVKRSWTSAQNACSEHGATLAVIDSEKDMNFLKRYAGREEHWVGLKKEPGHPWKWSNGKEFNNWFNVTGSDKCVFLKNTEVSSMECEKNLYWICNKPYK
# notes: CD69, endogenous in the plasma membrane of human Jurkat T cells; the introduction describes it as a phosphorylated disulfide-linked homodimer; Written as the protomer; the self-association row gives the dimer; Detected with the anti-CD69 antibody FN50-AF647; source: endogenous, on Jurkat T cells (Jurkat E6-1)
# Experiments:
# [1] = molecular target: CD45 (human (endogenous in Jurkat)) (UniProt P08575); assay: dSTORM localization statistics (number of localizations per cluster); live Jurkat T cells of large passage number labelled on ice with HI30-AF647, then fixed with 2% FA and 0.25% GA; TIRF on the basal membrane; DBSCAN clusters compared with theoretical monomer and dimer distributions
# [2] = molecular target: the molecule itself; assay: dSTORM localization statistics (number of localizations per cluster); Jurkat T cells labelled with FN50-AF647, live on ice or after PFA or FA fixation, independent of the passage number; DBSCAN clusters compared with theoretical monomer and dimer distributions
Molecule,stoichiometry N [1],stoichiometry N [2]
CD45 (from UniProt P08575 26-1306) (receptor),2,–
B1,–,2

# — PMC12871438, “Single-molecule localization microscopy reveals the molecular organization of endogenous membrane receptors” (Science Advances, 2026)
